Source: FireProtDB (doi:10.1111/j.1432-1033.1994.tb18664.x)

Details: Escherichia coli (strain K12), Thermal, CD, NaCl 0.1 M, reversible: yes, whole UniProt chain shown

B1: Ribonuclease HI wild type, P0A7Y4 (protein)
chain: MLKQVEIFTDGSCLGNPGPGGYGAILRYRGREKTFSAGYTRTTNNRMELMAAIVALEALKEHCEVILSTDSQYVRQGITQWIHNWKKRGWKTADKKPVKNVDLWQRLDAALGQHQIKWEWVKGHAGHPENERCDELARAAAMNPTLEDTGYQVEV
With B1 the Tm (pH 3, glycine-HCl 10 mM) was 50 °C, the “unfolding enthalpy (van 't Hoff)” value (pH 3, glycine-HCl 10 mM) was 107 kcal/mol and the Tm (pH 5.5, Sodium acetate 20 mM) was 53.1 °C. For the same protein, the “unfolding enthalpy (van 't Hoff)” value (pH 5.5, Sodium acetate 20 mM) was 83.3 kcal/mol.
